For three molecules, interaction score results are on record in publication PMC10397247.

For one assay, the target named is T1, 4H2504-AA.
T1 chain: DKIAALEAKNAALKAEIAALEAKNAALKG
The experiment in a line: two-hybrid library CCmax.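 Note: natural log of median RNA to DNA barcode read ratio; higher means stronger binding.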

The next assay addresses T2, 4H2592-AA.
T2 chain: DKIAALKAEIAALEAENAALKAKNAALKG
The experiment in a line: two-hybrid library CCmax.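 Note: natural log of median RNA to DNA barcode read ratio; higher means stronger binding.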

Another assay addresses T3, 4H2611-AA.
T3 chain: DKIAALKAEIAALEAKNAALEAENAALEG
The experiment in a line: two-hybrid library CCmax.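 Note: natural log of median RNA to DNA barcode read ratio; higher means stronger binding.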 The conditions noted are these: mean of both orientations.

A further assay has as its target T4, 4H2774-AA.
T4 chain: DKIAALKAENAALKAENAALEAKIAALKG
The experiment in a line: two-hybrid library CCmax.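 Note: natural log of median RNA to DNA barcode read ratio; higher means stronger binding.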 The note with it: mean of both orientations.

In another assay the target is T5, 4H3001-AA.
T5 chain: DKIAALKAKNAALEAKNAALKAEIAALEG
Put plainly: two-hybrid library CCmax.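 Note: natural log of median RNA to DNA barcode read ratio; higher means stronger binding.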 The conditions noted are these: mean of both orientations.

A further assay has as its target T6, 4H3340-AA.
T6 chain: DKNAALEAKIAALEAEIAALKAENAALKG
The experiment in a line: two-hybrid library CCmax.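 Note: natural log of median RNA to DNA barcode read ratio; higher means stronger binding.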

The target in a further assay is T7, 4H3381-AA.
T7 chain: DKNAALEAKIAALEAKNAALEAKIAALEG
Put plainly: two-hybrid library CCmax. The conditions noted are these: mean of both orientations.

A further assay addresses T8, 4H347-AA.
T8 chain: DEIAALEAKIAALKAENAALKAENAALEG
The experiment in a line: two-hybrid library CCmax. The note with it: mean of both orientations.

Another assay addresses T9, 4H3493-AA.
T9 chain: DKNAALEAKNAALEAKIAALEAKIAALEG
The experiment in a line: two-hybrid library CCmax. The note with it: mean of both orientations.

The target in another assay is T10, 4H376-AA.
T10 chain: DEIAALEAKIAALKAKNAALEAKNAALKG
Put plainly: two-hybrid library CCmax. The conditions noted are these: mean of both orientations.

The next assay addresses T11, 4H406-AA.
T11 chain: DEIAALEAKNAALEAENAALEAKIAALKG
The experiment in a line: two-hybrid library CCmax. The conditions noted are these: mean of both orientations.

The target of the next assay is T12, 4H688-AA.
T12 chain: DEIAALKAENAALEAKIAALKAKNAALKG
Put plainly: two-hybrid library CCmax. The conditions noted are these: mean of both orientations.

A further assay has as its target T13, 4H963-AA.
T13 chain: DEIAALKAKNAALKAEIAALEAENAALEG
The experiment in a line: two-hybrid library CCmax. The note with it: mean of both orientations.

In the next assay the target is T14, 4H1544-bA.
T14 chain: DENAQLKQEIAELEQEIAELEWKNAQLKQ
The experiment in a line: two-hybrid library CCNG1.

For the next assay, the target named is T15, 4H1710-bA.
T15 chain: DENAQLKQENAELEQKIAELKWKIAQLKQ
The experiment in a line: two-hybrid library CCNG1.

The target of another assay is T16, 4H1899-bA.
T16 chain: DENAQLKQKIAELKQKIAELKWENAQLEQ
Put plainly: two-hybrid library CCNG1.

The next assay has as its target T17, 4H1985-bA.
T17 chain: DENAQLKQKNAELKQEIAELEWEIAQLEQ
Put plainly: two-hybrid library CCNG1.

A further assay addresses T18, 4H3162-bA.
T18 chain: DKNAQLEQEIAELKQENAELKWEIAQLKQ
Put plainly: two-hybrid library CCNG1.

The next assay concerns the target T19, 4H3175-bA.
T19 chain: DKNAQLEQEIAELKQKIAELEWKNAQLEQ
Put plainly: two-hybrid library CCNG1.

The target in the next assay is T20, 4H3277-bA.
T20 chain: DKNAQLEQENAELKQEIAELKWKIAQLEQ
Put plainly: two-hybrid library CCNG1.

The target of another assay is T21, 4H3298-bA.
T21 chain: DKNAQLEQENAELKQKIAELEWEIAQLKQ
Put plainly: two-hybrid library CCNG1.

The next assay addresses T22, 4H3462-bA.
T22 chain: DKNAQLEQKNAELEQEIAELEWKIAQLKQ
Put plainly: two-hybrid library CCNG1.

The target of another assay is T23, 4H3497-bA.
T23 chain: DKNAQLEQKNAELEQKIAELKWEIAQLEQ
Put plainly: two-hybrid library CCNG1.

Another assay addresses T24, 4H3613-bA.
T24 chain: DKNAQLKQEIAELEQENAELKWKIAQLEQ
Put plainly: two-hybrid library CCNG1.

The target of the next assay is T25, 4H3628-bA.
T25 chain: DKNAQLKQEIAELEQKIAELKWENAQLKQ
The experiment in a line: two-hybrid library CCNG1.

The target in a further assay is T26, 4H3817-bA.
T26 chain: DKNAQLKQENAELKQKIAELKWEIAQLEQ
The experiment in a line: two-hybrid library CCNG1.

The next assay deals with T27, 4H3858-bA.
T27 chain: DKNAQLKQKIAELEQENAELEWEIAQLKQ
Put plainly: two-hybrid library CCNG1.

For the next assay, the target named is T28, 4H3926-bA.
T28 chain: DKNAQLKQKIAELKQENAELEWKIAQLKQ
The experiment in a line: two-hybrid library CCNG1.

In the next assay the target is T29, 4H3974-bA.
T29 chain: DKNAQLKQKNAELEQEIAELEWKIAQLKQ
Put plainly: two-hybrid library CCNG1.

A further assay deals with T30, 4H570-bA.
T30 chain: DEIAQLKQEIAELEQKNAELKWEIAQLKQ
Put plainly: two-hybrid library CCNG1.

The next assay deals with T31, 4H591-bA.
T31 chain: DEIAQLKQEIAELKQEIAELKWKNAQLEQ
Put plainly: two-hybrid library CCNG1.

The next assay addresses T32, 4H626-bA.
T32 chain: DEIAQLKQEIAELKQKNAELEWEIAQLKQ
Put plainly: two-hybrid library CCNG1.

Another assay deals with T33, 4H850-bA.
T33 chain: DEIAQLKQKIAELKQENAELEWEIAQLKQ
The experiment in a line: two-hybrid library CCNG1.

The target of a further assay is T34, 4H906-bA.
T34 chain: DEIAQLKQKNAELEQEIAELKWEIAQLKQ
Put plainly: two-hybrid library CCNG1.

The target of another assay is T35, P3A-bA.
T35 chain: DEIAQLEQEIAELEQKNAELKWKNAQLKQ
Put plainly: two-hybrid library CCNG1.

In another assay the target is T36, P4A-bA.
T36 chain: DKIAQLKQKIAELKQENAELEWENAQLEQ
Put plainly: two-hybrid library CCNG1.

The target in a further assay is T37, P5A-bA.
T37 chain: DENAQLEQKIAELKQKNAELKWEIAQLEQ
Put plainly: two-hybrid library CCNG1.

In another assay the target is T38, P6A-bA.
T38 chain: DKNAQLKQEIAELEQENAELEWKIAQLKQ
Put plainly: two-hybrid library CCNG1.

For another assay, the target named is T39, P7A-bA.
T39 chain: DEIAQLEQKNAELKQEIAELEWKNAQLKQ
Put plainly: two-hybrid library CCNG1.

The target of another assay is T40, P8A-bA.
T40 chain: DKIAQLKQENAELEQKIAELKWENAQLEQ
The experiment in a line: two-hybrid library CCNG1.

The target in the next assay is T41, P9A-bA.
T41 chain: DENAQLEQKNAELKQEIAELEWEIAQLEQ
The experiment in a line: two-hybrid library CCNG1.

B1: 4H2504-AA (peptide)
chain: DKIAALEAKNAALKAEIAALEAKNAALKG
Regarding B1, the interaction score in the assay with 4H2504-AA is -0.729; with 4H2592-AA it was -1.07; in the assay with 4H2611-AA, -2.59; in the assay with 4H2774-AA, -1.42; in the assay with 4H3001-AA, -1.38; in the assay with 4H3340-AA it was -1.51. In addition, the interaction score with 4H3381-AA was -0.947; with 4H347-AA, -1.77; in the assay with 4H3493-AA it was -1.14; in the assay with 4H376-AA it was -1.78; with 4H406-AA, 0.644; with 4H688-AA it was 0.978. In the assay with 4H963-AA, this molecule yielded an interaction score of -0.737.

B2: 4H1544-bA (peptide)
chain: DENAQLKQEIAELEQEIAELEWKNAQLKQ
As for B2, the interaction score was 0.00288 in the assay with 4H1544-bA; 2.06 in the assay with 4H1710-bA; 1.52 in the assay with 4H1899-bA; 0.274 in the assay with 4H1985-bA; 0.788 with 4H3162-bA; -0.0402 with 4H3175-bA. In addition, the interaction score with 4H3277-bA amounted to 0.243; in the assay with 4H3298-bA it was 0.792; with 4H3462-bA it was 0.455; in the assay with 4H3497-bA, 0.215; with 4H3613-bA, 0.572; with 4H3628-bA, 0.77. The interaction score in the assay with 4H3817-bA was 0.78; with 4H3858-bA, -0.357; with 4H3926-bA it was 0.0381; with 4H3974-bA, 0.562; in the assay with 4H570-bA, -0.0902; with 4H591-bA, -0.632. Besides, the interaction score with 4H626-bA was -0.46; with 4H850-bA, 0.322; in the assay with 4H906-bA, -0.806.

B3: P1A-bA (peptide)
chain: DEIAQLEQENAELEQENAELEWEIAQLEQ
As for B3, the interaction score was -1.12 with P3A-bA; -1.08 with P4A-bA; -1.1 with P5A-bA; -1.21 with P6A-bA; -0.804 with P7A-bA; -0.805 with P8A-bA. In addition, in the assay with P9A-bA, the interaction score is -1.21.
